Measured values taken from PMC2782037 (The Journal of Biological Chemistry, 2009).
One block for each binder: values may come before it.

Target: Human FANCD2, non-tagged (human, UniProt Q9BXW9-2 1-1451)
Experiment: co-IP

Human FANCD2, non-tagged, sequence (Q9BXW9 whole entry): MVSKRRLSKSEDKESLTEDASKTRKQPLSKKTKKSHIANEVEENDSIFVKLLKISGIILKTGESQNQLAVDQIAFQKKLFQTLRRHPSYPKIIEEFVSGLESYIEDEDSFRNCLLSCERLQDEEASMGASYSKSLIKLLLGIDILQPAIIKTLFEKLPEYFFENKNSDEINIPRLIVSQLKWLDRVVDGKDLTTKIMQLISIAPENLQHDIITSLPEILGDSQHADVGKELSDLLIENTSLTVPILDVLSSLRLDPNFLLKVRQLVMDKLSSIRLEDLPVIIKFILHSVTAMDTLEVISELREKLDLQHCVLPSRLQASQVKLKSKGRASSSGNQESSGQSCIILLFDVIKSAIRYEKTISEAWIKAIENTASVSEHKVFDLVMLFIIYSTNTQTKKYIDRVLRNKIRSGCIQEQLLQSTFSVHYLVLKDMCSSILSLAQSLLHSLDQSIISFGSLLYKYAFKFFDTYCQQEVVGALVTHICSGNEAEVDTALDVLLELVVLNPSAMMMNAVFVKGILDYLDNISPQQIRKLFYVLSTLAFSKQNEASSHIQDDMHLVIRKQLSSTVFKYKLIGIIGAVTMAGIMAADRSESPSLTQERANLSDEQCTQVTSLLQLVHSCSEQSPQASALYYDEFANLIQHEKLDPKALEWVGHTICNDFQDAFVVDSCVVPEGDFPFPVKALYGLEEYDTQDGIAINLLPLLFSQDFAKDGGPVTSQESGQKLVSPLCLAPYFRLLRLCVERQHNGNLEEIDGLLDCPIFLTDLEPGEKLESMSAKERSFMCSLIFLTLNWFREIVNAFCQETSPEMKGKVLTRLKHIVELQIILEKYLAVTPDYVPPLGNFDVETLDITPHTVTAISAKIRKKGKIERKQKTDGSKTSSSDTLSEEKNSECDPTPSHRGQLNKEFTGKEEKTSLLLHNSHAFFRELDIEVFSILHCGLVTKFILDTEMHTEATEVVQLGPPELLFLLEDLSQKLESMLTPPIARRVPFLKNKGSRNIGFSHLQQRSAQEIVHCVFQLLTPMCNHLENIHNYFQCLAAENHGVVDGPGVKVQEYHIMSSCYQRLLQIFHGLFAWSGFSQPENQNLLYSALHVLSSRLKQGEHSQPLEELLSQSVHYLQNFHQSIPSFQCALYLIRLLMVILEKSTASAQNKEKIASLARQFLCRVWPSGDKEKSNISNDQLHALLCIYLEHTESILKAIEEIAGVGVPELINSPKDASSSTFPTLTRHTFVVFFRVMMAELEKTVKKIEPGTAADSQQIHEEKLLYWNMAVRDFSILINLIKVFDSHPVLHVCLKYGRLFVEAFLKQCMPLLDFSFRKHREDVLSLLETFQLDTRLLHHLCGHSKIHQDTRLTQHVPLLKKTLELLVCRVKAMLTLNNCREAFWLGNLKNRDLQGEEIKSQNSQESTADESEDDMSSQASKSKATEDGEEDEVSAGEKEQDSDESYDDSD

- binding result: binds
B1: FANCI-D1301A, hexahistidine-tagged (EDGE motif mutant) (natural protein, human, UniProt Q9NVI1-3 1-1328, looked up)
chain: MDQKILSLAAEKTADKLQEFLQTLREGDLTNLLQNQAVKGKVAGALLRAIFKGSPCSEEAGTLRRRKIYTCCIQLVESGDLQKEIASEIIGLLMLEAHHFPGPLLVELANEFISAVREGSLVNGKSLELLPIILTALATKKENLAYGKGVLSGEECKKQLINTLCSGRWDQQYVIQLTSMFKDVPLTAEEVEFVVEKALSMFSKMNLQEIPPLVYQLLVLSSKGSRKSVLEGIIAFFSALDKQHNEEQSGDELLDVVTVPSGELRHVEGTIILHIVFAIKLDYELGRELVKHLKVGQQGDSNNNLSPFSIALLLSVTRIQRFQDQVLDLLKTSVVKSFKDLQLLQGSKFLQNLVPHRSYVSTMILEVVKNSVHSWDHVTQGLVELGFILMDSYGPKKVLDGKTIETSPSLSRMPNQHACKLGANILLETFKIHEMIRQEILEQVLNRVVTRASSPISHFLDLLSNIVMYAPLVLQSCSSKVTEAFDYLSFLPLQTVQRLLKAVQPLLKVSMSMRDCLILVLRKAMFANQLDARKSAVAGFLLLLKNFKVLGSLSSSQCSQSLSVSQVHVDVHSHYNSVANETFCLEIMDSLRRCLSQQADVRLMLYEGFYDVLRRNSQLANSVMQTLLSQLKQFYEPKPDLLPPLKLEACILTQGDKISLQEPLDYLLCCIQHCLAWYKNTVIPLQQGEEEEEEEEAFYEDLDDILESITNRMIKSELEDFELDKSADFSQSTSIGIKNNICAFLVMGVCEVLIEYNFSISSFSKNRFEDILSLFMCYKKLSDILNEKAGKAKTKMANKTSDSLLSMKFVSSLLTALFRDSIQSHQESLSVLRSSNEFMRYAVNVALQKVQQLKETGHVSGPDGQNPEKIFQNLCDITRVLLWRYTSIPTSVEESGKKEKGKSISLLCLEGLQKIFSAVQQFYQPKIQQFLRALDVTDKEGEEREDADVSVTQRTAFQIRQFQRSLLNLLSSQEEDFNSKEALLLVTVLTSLSKLLEPSSPQFVQMLSWTSKICKENSREDALFCKSLMNLLFSLHVSYKSPVILLRDLSQDIHGHLGDIDQDVEVEKTNHFAIVNLRTAAPTVCLLVLSQAEKVLEEVDWLITKLKGQVSQETLSEEASSQATLPNQPVEKAIIMQLGTLLTFFHELVQTALPSGSCVDTLLKDLCKMYTTLTALVRYYLQVCQSSGGIPKNMEKLVKLSGSHLTPLCYSFISYVQNKSKSLNYTGEKKEKPAAVATAMARVLRETKPIPNLIFAIEQYEKFLIHLSKKSKVNLMQHMKLSTSRDFKIKGNILDMVLREAGEDENEEGTASEHGGQNKEPAKKKRKK

- binding result: binds
B2: FANCI-(1001–1328), hexahistidine-tagged (domain or fragment, human, UniProt Q9NVI1-3 1001-1328, looked up)
chain: PQFVQMLSWTSKICKENSREDALFCKSLMNLLFSLHVSYKSPVILLRDLSQDIHGHLGDIDQDVEVEKTNHFAIVNLRTAAPTVCLLVLSQAEKVLEEVDWLITKLKGQVSQETLSEEASSQATLPNQPVEKAIIMQLGTLLTFFHELVQTALPSGSCVDTLLKDLCKMYTTLTALVRYYLQVCQSSGGIPKNMEKLVKLSGSHLTPLCYSFISYVQNKSKSLNYTGEKKEKPAAVATAMARVLRETKPIPNLIFAIEQYEKFLIHLSKKSKVNLMQHMKLSTSRDFKIKGNILDMVLREDGEDENEEGTASEHGGQNKEPAKKKRKK
